The record followed here is patent US5695964.

One test has as its target human fibrinogen (human) (UniProt P02671).
Test [1] deals with bovine thrombin (bovine) (UniProt P00735). The conditions noted are these: scale: relative activity.
Test [2] has the same target.
For the next test, the target named is DIP-thrombin agarose. Put plainly: chromatography on DIP-thrombin agarose.

Bounds are passed on as bounds.

Chain of recombinant human urine thrombomodulin ruTM-Ala (receptor) (chain): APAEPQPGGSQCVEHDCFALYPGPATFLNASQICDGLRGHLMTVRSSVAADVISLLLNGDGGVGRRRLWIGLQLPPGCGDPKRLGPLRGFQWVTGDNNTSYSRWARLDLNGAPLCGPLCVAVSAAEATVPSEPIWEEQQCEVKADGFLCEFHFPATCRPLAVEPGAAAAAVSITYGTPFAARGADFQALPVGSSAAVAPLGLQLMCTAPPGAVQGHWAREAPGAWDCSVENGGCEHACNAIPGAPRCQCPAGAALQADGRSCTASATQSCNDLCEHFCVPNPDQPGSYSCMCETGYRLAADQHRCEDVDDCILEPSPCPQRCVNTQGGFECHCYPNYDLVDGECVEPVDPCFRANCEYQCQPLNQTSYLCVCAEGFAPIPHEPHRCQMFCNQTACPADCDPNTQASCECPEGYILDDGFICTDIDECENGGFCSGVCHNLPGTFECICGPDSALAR
Chain of pKCR-TM-Val-originated recombinant human urine thrombomodulin (receptor) (chain): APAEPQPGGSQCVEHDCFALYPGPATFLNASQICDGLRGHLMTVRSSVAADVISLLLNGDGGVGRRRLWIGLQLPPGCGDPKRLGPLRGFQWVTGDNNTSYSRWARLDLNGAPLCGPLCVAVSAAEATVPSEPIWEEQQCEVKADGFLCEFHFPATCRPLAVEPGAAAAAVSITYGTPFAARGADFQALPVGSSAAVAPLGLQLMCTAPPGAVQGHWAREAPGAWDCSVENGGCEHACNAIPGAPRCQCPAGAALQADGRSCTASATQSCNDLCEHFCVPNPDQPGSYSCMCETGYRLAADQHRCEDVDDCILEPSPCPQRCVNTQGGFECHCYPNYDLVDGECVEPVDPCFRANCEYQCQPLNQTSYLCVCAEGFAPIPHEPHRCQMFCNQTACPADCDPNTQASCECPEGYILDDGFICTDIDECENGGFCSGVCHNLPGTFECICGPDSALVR
Chain of mutation type recombinant human urine thrombomodulin in which 10 amino acid residues are deleted from the C-terminus of the human urine thrombomodulin (receptor) (chain): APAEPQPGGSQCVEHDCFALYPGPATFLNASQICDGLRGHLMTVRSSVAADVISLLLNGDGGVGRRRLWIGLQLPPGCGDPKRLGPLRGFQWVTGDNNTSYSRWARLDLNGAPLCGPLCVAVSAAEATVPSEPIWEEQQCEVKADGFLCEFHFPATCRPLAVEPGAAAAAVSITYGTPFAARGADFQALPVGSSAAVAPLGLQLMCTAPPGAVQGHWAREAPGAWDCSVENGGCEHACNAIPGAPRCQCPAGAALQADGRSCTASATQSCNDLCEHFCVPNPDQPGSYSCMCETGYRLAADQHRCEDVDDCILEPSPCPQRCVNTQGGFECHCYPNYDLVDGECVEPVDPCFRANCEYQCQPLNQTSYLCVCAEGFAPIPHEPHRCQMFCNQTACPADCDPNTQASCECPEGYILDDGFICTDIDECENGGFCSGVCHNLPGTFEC

With “bovine thrombin (from UniProt P00735) (enzyme)”, in the test with human fibrinogen (human), the Coagulation time was 37.8 s.

In the test with bovine thrombin (bovine) [1], “human placenta thrombomodulin (from UniProt P07204) (receptor)” came in with a Protein C activating ability (relative activity) of 1.

On to “mutation type recombinant human urine thrombomodulin in which 10 amino acid residues are deleted from the C-terminus of the human urine thrombomodulin (receptor)”, for which the Protein C activating ability (relative activity) in the test with bovine thrombin (bovine) [1] was 4.1.

Consider “pKCR-TM-Val-originated recombinant human urine thrombomodulin (receptor)”, for which the Coagulation time in the test with bovine thrombin (bovine) [2] is greater than 500 s. Moreover, the adsorbed by thrombin in the test with DIP-thrombin agarose was determined as 100%.

As for “recombinant human urine thrombomodulin ruTM-Ala (receptor)”, the Protein C activating ability (relative activity) with bovine thrombin (bovine) [1] was found to be 3.8. Besides, the Coagulation time in the test with bovine thrombin (bovine) [2] is greater than 500 s. This substance had an adsorbed by thrombin with DIP-thrombin agarose of 100%.
